Data: paper PMC12106912 (International Journal of Nanomedicine, 2025)

Biological target: Glypican-3 (GPC3), surface antigen of HepG2 cells (Homo sapiens (endogenous, HepG2), UniProt P51654)
Assay: co-IP

Glypican-3 (GPC3), surface antigen of HepG2 cells, sequence (P51654 25-580): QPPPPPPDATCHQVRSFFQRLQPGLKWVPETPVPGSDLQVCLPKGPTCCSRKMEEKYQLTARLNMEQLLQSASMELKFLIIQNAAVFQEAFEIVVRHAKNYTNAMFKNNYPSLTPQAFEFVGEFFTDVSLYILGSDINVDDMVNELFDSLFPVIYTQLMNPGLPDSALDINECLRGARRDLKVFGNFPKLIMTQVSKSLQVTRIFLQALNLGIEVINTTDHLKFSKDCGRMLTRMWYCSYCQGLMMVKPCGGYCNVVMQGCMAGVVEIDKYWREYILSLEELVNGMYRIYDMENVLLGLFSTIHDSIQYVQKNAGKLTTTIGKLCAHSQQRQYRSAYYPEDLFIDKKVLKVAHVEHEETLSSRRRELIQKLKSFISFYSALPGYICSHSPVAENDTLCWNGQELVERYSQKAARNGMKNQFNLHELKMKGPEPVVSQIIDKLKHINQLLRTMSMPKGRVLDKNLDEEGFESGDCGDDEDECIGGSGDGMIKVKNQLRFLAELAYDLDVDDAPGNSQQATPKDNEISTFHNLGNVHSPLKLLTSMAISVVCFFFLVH

binding result: binds
B1: Hbp-hGC33-scFv/Myc fusion protein displayed on the membrane surface of E. coli outer membrane vesicles (hGC33-OMVs) (scFv, V domains shown)
VH: QVQLVQSGAEVKKPGASVKVSCKASGYTFTDYEMHWVRQAPGQGLEWMGALDPKTGDTAYSQKFKGRVTLTADKSTSTAYMELSSLTSEDTAVYYCTRFYSYTYWGQGTLVTVSS
VL: DVVMTQSPLSLPVTPGEPASISCRSSQSLVHSNGNTYLHWYLQKPGQSPQLLIYKVSNRFSGVPDRFSGSGSGTDFTLKISRVEAEDVGVYYCSQNTHVPPTFGQGTKLEIK
